Reference: paper doi:10.1101/2023.02.11.528150 (bioRxiv, 2023)
“And” between values parts separate entries of the source, which are not always exact repeats. Equal entries are not always repeated. Where two headings read alike, the source gives them in different places.

What was measured:
Experiment in all cases: native MS
native MS = target: the molecule itself
[1] = target: T1, recombinant form of human platelet factor 4 (PF4), tetramer (human, UniProt P02776)
[2] = target: T1, recombinant form of human platelet …; remark: listed apart in the source

B1: recombinant form of human platelet factor 4 (PF4), tetramer (natural protein)
chain: EAEEDGDLQCLCVKTTSQVRPRHITSLEVIKAGPHCPTAQLIATLKNGRKICLDLQAPLYKKIIKKLLES
For B1, the “stoichiometry N” value (native MS) was 4 chains per oligomer.

B2: KKO monoclonal anti-PF4/heparin antibody (antibody, V domains shown)
VH: VQLQQSGAELVKPGASVKLSCKASGYTFTNYFIYWVKQRPGQGLEWIGEINPRNGDTDFNEKFESRATLTVDKSSSTAYMQLSSLTSEDSAIYYCTRSPYGNNYGFTYWGQGTLVTVSA
VL: DIQMIQSQKFMSTSVGDRVTVTCKASQNVGTNVAWYQQKPGQSPNALIYSASYRYSGVPDRFTGSGSGTDFTLTITNVQSEDLADYFCQQYNSYPLTFGTGTKLDLK
With B2 the “stoichiometry N” value [1] was 1 KKO per complex of two PF4 tetramers on one heparin chain and 2 KKO per complex of three PF4 tetramers on one heparin chain and the “stoichiometry N” value [2] was 1 PF4 tetramer (with dp20) per KKO and 2 PF4 tetramers (with dp20) per KKO.
